Data reported in patent publication US20050026839A1 (GENERAL HOSPITAL, published 2005).
Square brackets hold non-standard residues; d marks the D form. Ends that are not written are not given here. hArg = N=C(N)NCCCC[C@H](N)C(=O)O; Nle = CCCC[C@H](N)C(=O)O; Aib = CC(C)(N)C(=O)O

T1: wild-type human PTH/PTHrP receptor (hP1R-WT) (human, UniProt Q03431 27-593)
T1 sequence (looked up): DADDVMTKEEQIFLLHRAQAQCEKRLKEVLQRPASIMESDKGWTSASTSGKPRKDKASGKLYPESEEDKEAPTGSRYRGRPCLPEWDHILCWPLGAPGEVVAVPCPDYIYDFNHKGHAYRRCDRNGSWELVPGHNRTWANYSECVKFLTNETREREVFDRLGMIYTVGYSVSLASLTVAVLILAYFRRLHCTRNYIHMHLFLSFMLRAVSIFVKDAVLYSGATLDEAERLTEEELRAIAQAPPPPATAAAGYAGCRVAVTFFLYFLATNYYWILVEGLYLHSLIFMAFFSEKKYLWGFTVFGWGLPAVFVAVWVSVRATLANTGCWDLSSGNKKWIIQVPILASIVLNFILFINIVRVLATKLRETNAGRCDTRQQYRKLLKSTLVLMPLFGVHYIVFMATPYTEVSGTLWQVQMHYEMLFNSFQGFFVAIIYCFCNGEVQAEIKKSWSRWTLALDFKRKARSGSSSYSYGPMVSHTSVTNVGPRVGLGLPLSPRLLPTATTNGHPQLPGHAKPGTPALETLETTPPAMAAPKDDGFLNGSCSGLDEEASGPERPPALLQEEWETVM

B1: [Aib^7,M]PTH(1-14) (peptide)
peptide: AVAEIQ[Aib]MHQ[hArg]AKW-NH2
modifications: N-terminus assumed
SMILES: CC[C@H](C)[C@H](NC(=O)[C@H](CCC(=O)O)NC(=O)[C@H](C)NC(=O)[C@@H](NC(=O)[C@H](C)N)C(C)C)C(=O)N[C@@H](CCC(N)=O)C(=O)NC(C)(C)C(=O)N[C@@H](CCSC)C(=O)N[C@@H](Cc1c[nH]cn1)C(=O)N[C@@H](CCC(N)=O)C(=O)N[C@@H](CCCCNC(=N)N)C(=O)N[C@@H](C)C(=O)N[C@@H](CCCCN)C(=O)N[C@@H](Cc1c[nH]c2ccccc12)C(N)=O
notes: Aib scan of [M]PTH(1-14); also called 628 Aib-7
B2: [Aib^4,M]PTH(1-14) (peptide)
peptide: AVA[Aib]IQLMHQ[hArg]AKW-NH2
modifications: N-terminus assumed
SMILES: CC[C@H](C)[C@H](NC(=O)C(C)(C)NC(=O)[C@H](C)NC(=O)[C@@H](NC(=O)[C@H](C)N)C(C)C)C(=O)N[C@@H](CCC(N)=O)C(=O)N[C@@H](CC(C)C)C(=O)N[C@@H](CCSC)C(=O)N[C@@H](Cc1c[nH]cn1)C(=O)N[C@@H](CCC(N)=O)C(=O)N[C@@H](CCCCNC(=N)N)C(=O)N[C@@H](C)C(=O)N[C@@H](CCCCN)C(=O)N[C@@H](Cc1c[nH]c2ccccc12)C(N)=O
notes: Aib scan of [M]PTH(1-14); also called 625 Aib-4
B3: [Aib^8,M]PTH(1-14) (peptide)
peptide: AVAEIQL[Aib]HQ[hArg]AKW-NH2
modifications: N-terminus assumed
SMILES: CC[C@H](C)[C@H](NC(=O)[C@H](CCC(=O)O)NC(=O)[C@H](C)NC(=O)[C@@H](NC(=O)[C@H](C)N)C(C)C)C(=O)N[C@@H](CCC(N)=O)C(=O)N[C@@H](CC(C)C)C(=O)NC(C)(C)C(=O)N[C@@H](Cc1c[nH]cn1)C(=O)N[C@@H](CCC(N)=O)C(=O)N[C@@H](CCCCNC(=N)N)C(=O)N[C@@H](C)C(=O)N[C@@H](CCCCN)C(=O)N[C@@H](Cc1c[nH]c2ccccc12)C(N)=O
notes: Aib scan of [M]PTH(1-14); also called 629 Aib-8
B4: [Aib^10,M]PTH(1-14) (peptide)
peptide: AVAEIQLMH[Aib][hArg]AKW-NH2
modifications: N-terminus assumed
SMILES: CC[C@H](C)[C@H](NC(=O)[C@H](CCC(=O)O)NC(=O)[C@H](C)NC(=O)[C@@H](NC(=O)[C@H](C)N)C(C)C)C(=O)N[C@@H](CCC(N)=O)C(=O)N[C@@H](CC(C)C)C(=O)N[C@@H](CCSC)C(=O)N[C@@H](Cc1c[nH]cn1)C(=O)NC(C)(C)C(=O)N[C@@H](CCCCNC(=N)N)C(=O)N[C@@H](C)C(=O)N[C@@H](CCCCN)C(=O)N[C@@H](Cc1c[nH]c2ccccc12)C(N)=O
notes: Aib scan of [M]PTH(1-14); Aib replaces the Gln^10 of [M]; also called 631 Aib-10
B5: [Aib^2,M]PTH(1-14) (peptide)
peptide: A[Aib]AEIQLMHQ[hArg]AKW-NH2
modifications: N-terminus assumed
SMILES: CC[C@H](C)[C@H](NC(=O)[C@H](CCC(=O)O)NC(=O)[C@H](C)NC(=O)C(C)(C)NC(=O)[C@H](C)N)C(=O)N[C@@H](CCC(N)=O)C(=O)N[C@@H](CC(C)C)C(=O)N[C@@H](CCSC)C(=O)N[C@@H](Cc1c[nH]cn1)C(=O)N[C@@H](CCC(N)=O)C(=O)N[C@@H](CCCCNC(=N)N)C(=O)N[C@@H](C)C(=O)N[C@@H](CCCCN)C(=O)N[C@@H](Cc1c[nH]c2ccccc12)C(N)=O
notes: Aib scan of [M]PTH(1-14); also called 623 Aib-2
B6: [Aib^9,M]PTH(1-14) (peptide)
peptide: AVAEIQLM[Aib]Q[hArg]AKW-NH2
modifications: N-terminus assumed
SMILES: CC[C@H](C)[C@H](NC(=O)[C@H](CCC(=O)O)NC(=O)[C@H](C)NC(=O)[C@@H](NC(=O)[C@H](C)N)C(C)C)C(=O)N[C@@H](CCC(N)=O)C(=O)N[C@@H](CC(C)C)C(=O)N[C@@H](CCSC)C(=O)NC(C)(C)C(=O)N[C@@H](CCC(N)=O)C(=O)N[C@@H](CCCCNC(=N)N)C(=O)N[C@@H](C)C(=O)N[C@@H](CCCCN)C(=O)N[C@@H](Cc1c[nH]c2ccccc12)C(N)=O
notes: Aib scan of [M]PTH(1-14); also called 630 Aib-9
B7: [Aib^6,M]PTH(1-14) (peptide)
peptide: AVAEI[Aib]LMHQ[hArg]AKW-NH2
modifications: N-terminus assumed
SMILES: CC[C@H](C)[C@H](NC(=O)[C@H](CCC(=O)O)NC(=O)[C@H](C)NC(=O)[C@@H](NC(=O)[C@H](C)N)C(C)C)C(=O)NC(C)(C)C(=O)N[C@@H](CC(C)C)C(=O)N[C@@H](CCSC)C(=O)N[C@@H](Cc1c[nH]cn1)C(=O)N[C@@H](CCC(N)=O)C(=O)N[C@@H](CCCCNC(=N)N)C(=O)N[C@@H](C)C(=O)N[C@@H](CCCCN)C(=O)N[C@@H](Cc1c[nH]c2ccccc12)C(N)=O
notes: Aib scan of [M]PTH(1-14); also called 627 Aib-6
B8: [Aib^1,3]PTH(1-9) (peptide)
peptide: [Aib]V[Aib]EIQLMH-NH2
modifications: N-terminus assumed
SMILES: CC[C@H](C)[C@H](NC(=O)[C@H](CCC(=O)O)NC(=O)C(C)(C)NC(=O)[C@@H](NC(=O)C(C)(C)N)C(C)C)C(=O)N[C@@H](CCC(N)=O)C(=O)N[C@@H](CC(C)C)C(=O)N[C@@H](CCSC)C(=O)N[C@@H](Cc1c[nH]cn1)C(N)=O
B9: [Ala^3,12,Nle^8,Gln^10,Har^11,Trp^14,Arg^19,Tyr^21]PTH(1-21)amide (peptide)
peptide: AVAEIQL[Nle]HQ[hArg]AKWLASVRRY-NH2
modifications: N-terminus assumed
SMILES: CCCC[C@H](NC(=O)[C@H](CC(C)C)NC(=O)[C@H](CCC(N)=O)NC(=O)[C@@H](NC(=O)[C@H](CCC(=O)O)NC(=O)[C@H](C)NC(=O)[C@@H](NC(=O)[C@H](C)N)C(C)C)[C@@H](C)CC)C(=O)N[C@@H](Cc1c[nH]cn1)C(=O)N[C@@H](CCC(N)=O)C(=O)N[C@@H](CCCCNC(=N)N)C(=O)N[C@@H](C)C(=O)N[C@@H](CCCCN)C(=O)N[C@@H](Cc1c[nH]c2ccccc12)C(=O)N[C@@H](CC(C)C)C(=O)N[C@@H](C)C(=O)N[C@@H](CO)C(=O)N[C@H](C(=O)N[C@@H](CCCNC(=N)N)C(=O)N[C@@H](CCCNC(=N)N)C(=O)N[C@@H](Cc1ccc(O)cc1)C(N)=O)C(C)C
notes: unlabeled peptide; also called [M]PTH(1-21); 608 [M]PTH(1-21)

target: T1, wild-type human PTH/PTHrP receptor …; assay: cell-based or functional assay

| Binder | cAMP EC50 | cAMP EMax(obs.) |
| --- | --- | --- |
| B1 | 2.6 µM | 275 pmole/well |
| B2 | 17 µM | 221 pmole/well |
| B3 | 1500 µM | 34 pmole/well |
| B4 | 3 µM | 214 pmole/well |
| B5 | 47 µM | 168 pmole/well |
| B6 | 710 µM | 51 pmole/well |
| B7 | 230 µM | 116 pmole/well |
| B8 | > 10 µM | 10 pmole/well |

target: T1, wild-type human PTH/PTHrP receptor …; assay: competition binding, 125I-[M]PTH(1-21) tracer, HKRK-B28 cells, 4 h at 4 C
Method: (§1) Competition Binding. Binding reactions were performed with HKRK-B28 cells or in COS-7 cells in 24-well plates. The cells were rinsed with 0.5 mL of binding buffer, and then treated successively with 100 μL binding buffer, 100 μL of binding buffer containing various amounts of unlabeled competitor ligand, and 100 μL of binding buffer containing ca. 100,000 cpm of ¹²⁵I-[M]PTH(1-21) or ¹²⁵I-[Aib^{1,3},M]PTH(1-21)} (ca. 26 fmol; final volume=300 μL). Incubations were 4 to 6 h at 4° C., at which time near equilibrium conditions were attained. Cells were then placed on ice, the binding medium was removed, and the monolayer was rinsed three times with 0.5 mL of cold binding buffer. The cells were subsequently lysed with 0.5 mL […] NaOH and counted for radioactivity. For each tracer and in each experiment, the non-specific binding was determined as the radioactivity that bound in the presence of the same unlabeled peptide at a concentration of 1 μM, and was ˜1% of total radioactivity added for each tracer. The maximum specific binding (B₀) was the total radioactivity bound in the absence of competing ligand, corrected for nonspecific binding, and for each tracer, ranged from 8% to 20% of the total radioactivity added. Nonlinear regression was used to calculate binding IC₅₀ values (see below). Scatchard transformations of homologous competition binding data derived from studies with 26 fmol of ¹²⁵I-[Aib^{1,3},M]PTH(1-21) were employed for estimations of apparent equilibrium dissociation constant (kDapps) and total number of ligand binding sites (Bₘₐₓ), assuming a single class of binding sites and equal affinities of the iodinated and non iodinated ligand.
Peptides PTH(1-34) ([Nle^{8,21}, Tyr³⁴]PTH(1-34)amide), [M]PTH(1-14) (M = Ala^{3,12}, Gln¹⁰, Har¹¹, Trp¹⁴), and [M]PTH(1-14 analogs, or C-terminally truncated derivatives thereof, containing α-aminoisobutyric acid (Aib) substitutions at the indicated positions were functionally evaluated in HKRK-B28 cells. “M” in [Aib^{1,3}, M]PTH(1-21) = Nle⁸, Gln¹⁰, Har¹¹, Ala¹², Trp¹⁴, Arg¹⁹ and Tyr²¹. The basal cAMP values (not subtracted) were 4.0 ± 0.1 pmole/well (n = 10). Peptides were based on the rat PTH sequence and were carboxy-amidated. Competition binding analyses were performed with ¹²⁵I-[M]PTH(1-21 )amide (Ala^{1,3}) as tracer for 4 h at 4° C. Data are means (±S.E.M.) Of the number of experiments indiated (n).

| Binder | IC50 |
| --- | --- |
| B1 | 490 µM |
| B2 | 148 µM |
| B4 | 9.1 µM |
| B5 | 50 µM |
| B9 | 0.053 µM |
| B7 | 31 µM |

target: T1, wild-type human PTH/PTHrP receptor …; assay: competition binding, 125I-[M]PTH(1-21) tracer, HKRK-B28 cells
Method: as §1, with “Cells” for “Competition Binding. Binding reactions were performed with HKRK-B28 cells or in COS-7 cells in 24-well plates. The cells were rinsed with 0.5 mL of binding buffer, and then treated successively with 100 μL binding buffer, 100 μL of binding buffer containing various amounts of unlabeled competitor ligand, and 100 μL of binding buffer containing ca. 100,000 cpm of ¹²⁵I-[M]PTH(1-21) or ¹²⁵I-[Aib^{1,3},M]PTH(1-21)} (ca. 26 fmol; final volume=300 μL). Incubations were 4 to 6 h at 4° C., at which time near equilibrium conditions were attained. Cells”
Relative to the apparent binding affinity of [M]PTH(1-14), most of the Aib substitutions reduced affinity, in accordance with the corresponding effects on cAMP-signaling potency (Table 1).

| Binder | fold reduction in affinity relative to [M]PTH(1-14) | fold improvement in affinity relative to [M]PTH(1-14) |
| --- | --- | --- |
| B1 | > 10 fold | – |
| B2 | > 10 fold | – |
| B3 | > 10 fold | – |
| B4 | – | 1.4 fold |
| B6 | > 10 fold | – |
| B7 | ~3 fold | – |
